According to the Immune Epitope Database (IEDB):

What was measured:
HLA-A*01:01 = assay: IEDB peptide-MHC binding, purified MHC/direct/fluorescence; filed as Kd, often an IC50 or EC50 that approximates it; ≥ and ≤ were set here for values at or beyond the usual limits of such assays
HLA-A*02:01 = assay: as above
HLA-A*03:01 = assay: as above
HLA-A*11:01 = assay: as above
HLA-A*24:02 = assay: as above; details: source organism: Influenza A virus (A/G.H/HK/793.1/02 (H5N1))
HLA-B*07:02 = assay: as above
HLA-B*08:01 [1] = assay: as above
HLA-B*15:01 = assay: as above
HLA-B*15:09 [2] = assay: as above
HLA-B*18:01 = assay: as above
HLA-B*27:05 = assay: as above
HLA-B*40:01 = assay: as above
HLA-B*44:02 = assay: as above; details: source organism: Influenza A virus (A/G.H/HK/793.1/02 (H5N1))
HLA-B*46:01 = assay: as above
HLA-B*58:01 = assay: as above
HLA-A*23:01 = assay: as above; details: source organism: Marburg virus - Musoke, Kenya, 1980
HLA-A*24:03 = assay: as above; details: source organism: Marburg virus - Musoke, Kenya, 1980
HLA-A*31:01 [3] = assay: as above
HLA-A*69:01 = assay: as above
HLA-B*08:02 = assay: as above; details: source organism: Ravn virus - Ravn, Kenya, 1987
HLA-C*08:02 = assay: as above; details: source organism: Orthomarburgvirus marburgense
HLA-A*02:06 = assay: IEDB peptide-MHC binding, purified MHC/competitive/fluorescence; filed as Kd, often an IC50 or EC50 that approximates it; ≥ and ≤ were set here for values at or beyond the usual limits of such assays; details: source organism: Orthomarburgvirus marburgense
HLA-A*26:01 [4] = assay: as above; details: source organism: Orthomarburgvirus marburgense
HLA-A*26:02 = assay: as above; details: source organism: Orthomarburgvirus marburgense
HLA-A*68:02 = assay: as above; details: source organism: Orthomarburgvirus marburgense
HLA-B*15:09 [5] = assay: as above
HLA-B*15:17 [6] = assay: as above
HLA-B*39:01 [7] = assay: as above; details: source organism: Orthomarburgvirus marburgense
HLA-B*57:01 [8] = assay: as above; details: source organism: Orthomarburgvirus marburgense
HLA-B*15:17 [9] = assay: IEDB peptide-MHC binding, purified MHC/direct/fluorescence; filed as Kd, often an IC50 or EC50 that approximates it; ≥ and ≤ were set here for values at or beyond the usual limits of such assays
HLA-B*38:01 = assay: as above
HLA-B*39:01 [10] = assay: as above
HLA-B*48:01 = assay: as above
HLA-B*57:01 [11] = assay: as above
HLA-A*02:03 = assay: IEDB peptide-MHC binding, purified MHC/competitive/fluorescence; filed as Kd, often an IC50 or EC50 that approximates it; ≥ and ≤ were set here for values at or beyond the usual limits of such assays; details: source organism: Influenza A virus (A/swine/Italy/1521/98(H1N2))
HLA-B*51:01 = assay: IEDB peptide-MHC binding, purified MHC/direct/fluorescence; filed as Kd, often an IC50 or EC50 that approximates it; ≥ and ≤ were set here for values at or beyond the usual limits of such assays
HLA-A*30:01 = assay: IEDB peptide-MHC binding, purified MHC/competitive/fluorescence; filed as Kd, often an IC50 or EC50 that approximates it; ≥ and ≤ were set here for values at or beyond the usual limits of such assays; details: source organism: Vibrio cholerae O1 biovar El Tor str. N16961
HLA-A*31:01 [12] = assay: as above; details: source organism: Vibrio cholerae O1 biovar El Tor str. N16961
HLA-B*08:01 [13] = assay: as above
HLA-C*04:01 = assay: IEDB peptide-MHC binding, purified MHC/direct/fluorescence; filed as Kd, often an IC50 or EC50 that approximates it; ≥ and ≤ were set here for values at or beyond the usual limits of such assays; details: source organism: Canis lupus familiaris
HLA-C*07:02 = assay: as above; details: source organism: Canis lupus familiaris
HLA-A*26:01 [14] = assay: as above; details: source organism: Influenza A virus(A/swine/Shandong/fNY/2003(H9N2))
[15] = source organism: Influenza A virus (A/G.H/HK/793.1/02 (H5N1))
[16] = source organism: Marburg virus - Musoke, Kenya, 1980
[17] = source organism: Orthomarburgvirus marburgense
[18] = source organism: Influenza A virus (A/swine/Korea/S190/2004(H9N2))
[19] = source organism: Influenza A virus H3N2
[20] = source organism: Vibrio cholerae
[21] = source organism: Vibrio cholerae V52
[22] = source organism: Vibrio cholerae O1 biovar El Tor str. N16961
[23] = source organism: Influenza A virus (A/Wisconsin/4755/1994(H1N1))
[24] = source organism: Influenza A virus(A/swine/Shandong/fNY/2003(H9N2))

RRKTNLYGF
Kd (HLA-A*01:01; [15]): ≥ 20 µM | Kd (HLA-A*02:01; [15]): ≥ 20 µM | Kd (HLA-A*03:01; [15]): ≥ 20 µM | Kd (HLA-A*11:01; [15]): ≥ 20 µM | Kd (HLA-A*24:02): ≥ 20 µM | Kd (HLA-B*07:02; [15]): ≥ 20 µM | Kd (HLA-B*08:01 [1]; [15]): ≥ 20 µM | Kd (HLA-B*15:01; [15]): ≥ 20 µM | Kd (HLA-B*15:09 [2]; source organism: Influenza A virus (A/Taiwan/2/2006(H1N1))): ≥ 20 µM | Kd (HLA-B*18:01; [15]): ≥ 20 µM | Kd (HLA-B*27:05; source organism: Influenza A virus (A/Puerto Rico/8/34/Mount Sinai(H1N1))): 0.021 µM | Kd (HLA-B*40:01; [15]): ≥ 20 µM | Kd (HLA-B*44:02): ≥ 20 µM | Kd (HLA-B*46:01; [15]): ≥ 20 µM | Kd (HLA-B*58:01; [15]): ≥ 20 µM

YLAPSYRNF
Kd (HLA-A*01:01; [16]): ≥ 20 µM | Kd (HLA-A*11:01; [16]): ≥ 20 µM | Kd (HLA-A*23:01): 0.023 µM | Kd (HLA-A*24:03): 0.0165 µM | Kd (HLA-A*31:01 [3]; [16]): ≥ 20 µM | Kd (HLA-A*69:01; [16]): ≥ 20 µM | Kd (HLA-B*07:02; [16]): ≥ 20 µM | Kd (HLA-B*08:02): ≥ 20 µM | Kd (HLA-B*18:01; [16]): ≥ 20 µM | Kd (HLA-B*58:01; source organism: Ravn virus - Ravn, Kenya, 1987): 0.43 µM | Kd (HLA-C*08:02): ≥ 20 µM | Kd (HLA-A*02:06): ≥ 20 µM | Kd (HLA-A*26:01 [4]): 5.13 µM | Kd (HLA-A*26:02): 0.0042 µM | Kd (HLA-A*68:02): 3.22 µM | Kd (HLA-B*15:09 [5]; [17]): ≥ 20 µM | Kd (HLA-B*15:17 [6]; [17]): 3.98 µM | Kd (HLA-B*39:01 [7]): ≥ 20 µM | Kd (HLA-B*57:01 [8]): ≥ 20 µM

WIPKRNRSI
Kd (HLA-A*01:01; [18]): ≥ 20 µM | Kd (HLA-A*02:01; [18]): ≥ 20 µM | Kd (HLA-A*03:01; [18]): ≥ 20 µM | Kd (HLA-A*11:01; [18]): ≥ 20 µM | Kd (HLA-A*31:01 [3]; [18]): ≥ 20 µM | Kd (HLA-A*69:01; [18]): ≥ 20 µM | Kd (HLA-B*07:02; [18]): 0.644 µM | Kd (HLA-B*08:01 [1]; [19]): 0.018 µM | Kd (HLA-B*15:01; [18]): ≥ 20 µM | Kd (HLA-B*15:09 [2]; [19]): ≥ 20 µM | Kd (HLA-B*15:17 [9]; [18]): ≥ 20 µM | Kd (HLA-B*18:01; [18]): ≥ 20 µM | Kd (HLA-B*27:05; [18]): ≥ 20 µM | Kd (HLA-B*38:01; [19]): ≥ 20 µM | Kd (HLA-B*39:01 [10]; [19]): ≥ 20 µM | Kd (HLA-B*40:01; [18]): ≥ 20 µM | Kd (HLA-B*46:01; [18]): ≥ 20 µM | Kd (HLA-B*48:01; [18]): ≥ 20 µM | Kd (HLA-B*57:01 [11]; [18]): ≥ 20 µM | Kd (HLA-B*58:01; [18]): ≥ 20 µM | Kd (HLA-A*02:03): ≥ 20 µM

YLKKGRLSL
Kd (HLA-A*01:01; [20]): ≥ 20 µM | Kd (HLA-A*03:01; [20]): ≥ 20 µM | Kd (HLA-A*11:01; [20]): ≥ 20 µM | Kd (HLA-A*69:01; [20]): ≥ 20 µM | Kd (HLA-B*07:02; [20]): 0.123 µM | Kd (HLA-B*15:01; [21]): 0.053 µM | Kd (HLA-B*15:17 [9]; [20]): ≥ 20 µM | Kd (HLA-B*18:01; [20]): ≥ 20 µM | Kd (HLA-B*27:05; [20]): ≥ 20 µM | Kd (HLA-B*39:01 [10]; [21]): ≥ 20 µM | Kd (HLA-B*40:01; [20]): ≥ 20 µM | Kd (HLA-B*46:01; [20]): 5.06 µM | Kd (HLA-B*48:01; [20]): ≥ 20 µM | Kd (HLA-B*51:01; [20]): ≥ 20 µM | Kd (HLA-B*57:01 [11]; [20]): ≥ 20 µM | Kd (HLA-B*58:01; [20]): ≥ 20 µM | Kd (HLA-A*30:01): 1.49 µM | Kd (HLA-A*31:01 [12]): ≥ 20 µM | Kd (HLA-B*08:01 [13]; [22]): 0.0532 µM | Kd (HLA-B*15:09 [5]; [22]): ≥ 20 µM

HYNAFHWAI
Kd (HLA-C*04:01): ≥ 20 µM | Kd (HLA-C*07:02): 0.047 µM

ITKEKKEEL
Kd (HLA-A*01:01; [23]): ≥ 20 µM | Kd (HLA-A*02:01; [23]): ≥ 20 µM | Kd (HLA-A*03:01; [23]): ≥ 20 µM | Kd (HLA-A*11:01; [23]): ≥ 20 µM | Kd (HLA-A*26:01 [14]): ≥ 20 µM | Kd (HLA-A*31:01 [3]; [23]): ≥ 20 µM | Kd (HLA-A*69:01; [23]): ≥ 20 µM | Kd (HLA-B*07:02; [23]): ≥ 20 µM | Kd (HLA-B*15:01; [23]): ≥ 20 µM | Kd (HLA-B*15:09 [2]; [24]): ≥ 20 µM | Kd (HLA-B*18:01; [23]): ≥ 20 µM | Kd (HLA-B*27:05; [23]): ≥ 20 µM | Kd (HLA-B*38:01; [24]): ≥ 20 µM | Kd (HLA-B*39:01 [10]; [24]): ≥ 20 µM | Kd (HLA-B*40:01; [23]): ≥ 20 µM | Kd (HLA-B*46:01; [23]): ≥ 20 µM | Kd (HLA-B*48:01; [23]): ≥ 20 µM | Kd (HLA-B*51:01; [23]): ≥ 20 µM | Kd (HLA-B*57:01 [11]; [23]): ≥ 20 µM | Kd (HLA-B*58:01; [23]): ≥ 20 µM | Kd (HLA-B*08:01 [13]; [19]): 4.81 µM | Kd (HLA-B*15:17 [6]; [19]): ≥ 20 µM
